These results are taken from paper PMC12633535 (bioRxiv, 2025).

One may read the Kd as the constant that tells how readily two partners part at equilibrium.

B1: full-length β-catenin, untagged, wild type (natural protein, human, UniProt P35222 1-781, looked up)
chain: MATQADLMELDMAMEPDRKAAVSHWQQQSYLDSGIHSGATTTAPSLSGKGNPEEEDVDTSQVLYEWEQGFSQSFTQEQVADIDGQYAMTRAQRVRAAMFPETLDEGMQIPSTQFDAAHPTNVQRLAEPSQMLKHAVVNLINYQDDAELATRAIPELTKLLNDEDQVVVNKAAVMVHQLSKKEASRHAIMRSPQMVSAIVRTMQNTNDVETARCTAGTLHNLSHHREGLLAIFKSGGIPALVKMLGSPVDSVLFYAITTLHNLLLHQEGAKMAVRLAGGLQKMVALLNKTNVKFLAITTDCLQILAYGNQESKLIILASGGPQALVNIMRTYTYEKLLWTTSRVLKVLSVCSSNKPAIVEAGGMQALGLHLTDPSQRLVQNCLWTLRNLSDAATKQEGMEGLLGTLVQLLGSDDINVVTCAAGILSNLTCNNYKNKMMVCQVGGIEALVRTVLRAGDREDITEPAICALRHLTSRHQEAEMAQNAVRLHYGLPVVVKLLHPPSHWPLIKATVGLIRNLALCPANHAPLREQGAIPRLVQLLVRAHQDTQRRTSMGGTQQQFVEGVRMEEIVEGCTGALHILARDVHNRIVIRGLNTIPLFVQLLYSPIENIQRVAAGVLCELAQDKEAAEAIEAEGATAPLTELLHSRNEGVATYAAAVLFRMSEDKPQDYKKRLSVELTSSLFRTEPMAWNETADLGLDIGAQGEPLGYRQDDPSYRSFHSGGYGQDALGMDPMMEHEMGGHHPGADYPVDGLPDLGHAQDLMDGLPPGDSNQLAWFDTDL
B8: GST-tagged AXIN1 CBD peptide V475I/L479W (a.a. 435-498) (domain or fragment, human, UniProt O15169-1 435-498, looked up)
chain: CHKLPPAPAWHHFPPRCVDMGCAGLRDAHEENPESILDEHIQRVWRTPGRQSPGPGHRSPDSGH

Common to all, as to test: BLI
(Biolayer interferometry detects binding as a change in optical thickness at a sensor tip.)

The target in assay [1] is B8.
For assay [2], the target named is T1, GST-tagged TCF4 fragment (a.a. 1–53) (UniProt Q9NQB0 1-53).
T1 sequence (looked up): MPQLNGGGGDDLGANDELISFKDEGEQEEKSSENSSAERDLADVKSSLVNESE

The target of assay [3] is T2, GST-ICAT (a.a. Met1-Gln81) (UniProt Q9NSA3 1-81).
T2 sequence (looked up): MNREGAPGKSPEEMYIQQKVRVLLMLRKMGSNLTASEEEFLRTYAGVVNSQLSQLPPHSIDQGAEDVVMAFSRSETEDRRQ

In assay [4] the target is B1.

With B1, in assay [1], the “fold decrease of koff against the wild-type CBD peptide” value is approximately 20 fold and the “half-life of the complex” value is approximately 1 min.

B2: β-catenin D624K/E626K/E628K (purified, full length, untagged) (natural protein)
chain: MATQADLMELDMAMEPDRKAAVSHWQQQSYLDSGIHSGATTTAPSLSGKGNPEEEDVDTSQVLYEWEQGFSQSFTQEQVADIDGQYAMTRAQRVRAAMFPETLDEGMQIPSTQFDAAHPTNVQRLAEPSQMLKHAVVNLINYQDDAELATRAIPELTKLLNDEDQVVVNKAAVMVHQLSKKEASRHAIMRSPQMVSAIVRTMQNTNDVETARCTAGTLHNLSHHREGLLAIFKSGGIPALVKMLGSPVDSVLFYAITTLHNLLLHQEGAKMAVRLAGGLQKMVALLNKTNVKFLAITTDCLQILAYGNQESKLIILASGGPQALVNIMRTYTYEKLLWTTSRVLKVLSVCSSNKPAIVEAGGMQALGLHLTDPSQRLVQNCLWTLRNLSDAATKQEGMEGLLGTLVQLLGSDDINVVTCAAGILSNLTCNNYKNKMMVCQVGGIEALVRTVLRAGDREDITEPAICALRHLTSRHQEAEMAQNAVRLHYGLPVVVKLLHPPSHWPLIKATVGLIRNLALCPANHAPLREQGAIPRLVQLLVRAHQDTQRRTSMGGTQQQFVEGVRMEEIVEGCTGALHILARDVHNRIVIRGLNTIPLFVQLLYSPIENIQRVAAGVLCELAQKKKAAKAIEAEGATAPLTELLHSRNEGVATYAAAVLFRMSEDKPQDYKKRLSVELTSSLFRTEPMAWNETADLGLDIGAQGEPLGYRQDDPSYRSFHSGGYGQDALGMDPMMEHEMGGHHPGADYPVDGLPDLGHAQDLMDGLPPGDSNQLAWFDTDL
Take B2: the “fold reduction of affinity against wild-type β-catenin” value (from here on “fold reduction of affinity”) in assay [2] and in assay [3] was approximately 10 fold in each case.

B3: GST-tagged AXIN1 CBD peptide, wild type (a.a. Cys435-His498) (domain or fragment, human, UniProt O15169-1 435-498, looked up)
chain: CHKLPPAPAWHHFPPRCVDMGCAGLRDAHEENPESILDEHVQRVLRTPGRQSPGPGHRSPDSGH
Molecule B3 returned a Kd in assay [4] of 1000 nM.

B4: full-length β-catenin R469H, untagged (natural protein, human, UniProt P35222 1-781, looked up)
chain: MATQADLMELDMAMEPDRKAAVSHWQQQSYLDSGIHSGATTTAPSLSGKGNPEEEDVDTSQVLYEWEQGFSQSFTQEQVADIDGQYAMTRAQRVRAAMFPETLDEGMQIPSTQFDAAHPTNVQRLAEPSQMLKHAVVNLINYQDDAELATRAIPELTKLLNDEDQVVVNKAAVMVHQLSKKEASRHAIMRSPQMVSAIVRTMQNTNDVETARCTAGTLHNLSHHREGLLAIFKSGGIPALVKMLGSPVDSVLFYAITTLHNLLLHQEGAKMAVRLAGGLQKMVALLNKTNVKFLAITTDCLQILAYGNQESKLIILASGGPQALVNIMRTYTYEKLLWTTSRVLKVLSVCSSNKPAIVEAGGMQALGLHLTDPSQRLVQNCLWTLRNLSDAATKQEGMEGLLGTLVQLLGSDDINVVTCAAGILSNLTCNNYKNKMMVCQVGGIEALVRTVLRAGDREDITEPAICALHHLTSRHQEAEMAQNAVRLHYGLPVVVKLLHPPSHWPLIKATVGLIRNLALCPANHAPLREQGAIPRLVQLLVRAHQDTQRRTSMGGTQQQFVEGVRMEEIVEGCTGALHILARDVHNRIVIRGLNTIPLFVQLLYSPIENIQRVAAGVLCELAQDKEAAEAIEAEGATAPLTELLHSRNEGVATYAAAVLFRMSEDKPQDYKKRLSVELTSSLFRTEPMAWNETADLGLDIGAQGEPLGYRQDDPSYRSFHSGGYGQDALGMDPMMEHEMGGHHPGADYPVDGLPDLGHAQDLMDGLPPGDSNQLAWFDTDL
As for B4, the “fold reduction of affinity” value in assay [2] is more than 10 fold.

B5: purified β-catenin E571K (full length, untagged) (natural protein, human, UniProt P35222 1-781, looked up)
chain: MATQADLMELDMAMEPDRKAAVSHWQQQSYLDSGIHSGATTTAPSLSGKGNPEEEDVDTSQVLYEWEQGFSQSFTQEQVADIDGQYAMTRAQRVRAAMFPETLDEGMQIPSTQFDAAHPTNVQRLAEPSQMLKHAVVNLINYQDDAELATRAIPELTKLLNDEDQVVVNKAAVMVHQLSKKEASRHAIMRSPQMVSAIVRTMQNTNDVETARCTAGTLHNLSHHREGLLAIFKSGGIPALVKMLGSPVDSVLFYAITTLHNLLLHQEGAKMAVRLAGGLQKMVALLNKTNVKFLAITTDCLQILAYGNQESKLIILASGGPQALVNIMRTYTYEKLLWTTSRVLKVLSVCSSNKPAIVEAGGMQALGLHLTDPSQRLVQNCLWTLRNLSDAATKQEGMEGLLGTLVQLLGSDDINVVTCAAGILSNLTCNNYKNKMMVCQVGGIEALVRTVLRAGDREDITEPAICALRHLTSRHQEAEMAQNAVRLHYGLPVVVKLLHPPSHWPLIKATVGLIRNLALCPANHAPLREQGAIPRLVQLLVRAHQDTQRRTSMGGTQQQFVEGVRMEEIVKGCTGALHILARDVHNRIVIRGLNTIPLFVQLLYSPIENIQRVAAGVLCELAQDKEAAEAIEAEGATAPLTELLHSRNEGVATYAAAVLFRMSEDKPQDYKKRLSVELTSSLFRTEPMAWNETADLGLDIGAQGEPLGYRQDDPSYRSFHSGGYGQDALGMDPMMEHEMGGHHPGADYPVDGLPDLGHAQDLMDGLPPGDSNQLAWFDTDL
As to B5, in assay [2], the “fold reduction of affinity” value is approximately 7 fold.

B6: full-length β-catenin C466Y/A467T, untagged (natural protein, human, UniProt P35222 1-781, looked up)
chain: MATQADLMELDMAMEPDRKAAVSHWQQQSYLDSGIHSGATTTAPSLSGKGNPEEEDVDTSQVLYEWEQGFSQSFTQEQVADIDGQYAMTRAQRVRAAMFPETLDEGMQIPSTQFDAAHPTNVQRLAEPSQMLKHAVVNLINYQDDAELATRAIPELTKLLNDEDQVVVNKAAVMVHQLSKKEASRHAIMRSPQMVSAIVRTMQNTNDVETARCTAGTLHNLSHHREGLLAIFKSGGIPALVKMLGSPVDSVLFYAITTLHNLLLHQEGAKMAVRLAGGLQKMVALLNKTNVKFLAITTDCLQILAYGNQESKLIILASGGPQALVNIMRTYTYEKLLWTTSRVLKVLSVCSSNKPAIVEAGGMQALGLHLTDPSQRLVQNCLWTLRNLSDAATKQEGMEGLLGTLVQLLGSDDINVVTCAAGILSNLTCNNYKNKMMVCQVGGIEALVRTVLRAGDREDITEPAIYTLRHLTSRHQEAEMAQNAVRLHYGLPVVVKLLHPPSHWPLIKATVGLIRNLALCPANHAPLREQGAIPRLVQLLVRAHQDTQRRTSMGGTQQQFVEGVRMEEIVEGCTGALHILARDVHNRIVIRGLNTIPLFVQLLYSPIENIQRVAAGVLCELAQDKEAAEAIEAEGATAPLTELLHSRNEGVATYAAAVLFRMSEDKPQDYKKRLSVELTSSLFRTEPMAWNETADLGLDIGAQGEPLGYRQDDPSYRSFHSGGYGQDALGMDPMMEHEMGGHHPGADYPVDGLPDLGHAQDLMDGLPPGDSNQLAWFDTDL
In the case of B6, the “fold reduction of affinity” value in assay [2] was more than 10 fold.

B7: GST-tagged AXIN1 CBD peptide V475I (a.a. 435-498) (domain or fragment, human, UniProt O15169-1 435-498, looked up)
chain: CHKLPPAPAWHHFPPRCVDMGCAGLRDAHEENPESILDEHIQRVLRTPGRQSPGPGHRSPDSGH
For the molecule B7, in assay [4], the Kd is approximately 450 nM.

Regarding B8, in assay [4], the Kd was found to be 40 nM.
